T1: 6xHIS-Nba1_(202-289)-SNAP (S. cerevisiae, UniProt Q08229 202-289)
T1 construct: Nba1, S. cerevisiae, residues 202-289; also called the PxxP site; source: E. coli BL21DE3, purified (HisTrap HP, size-exclusion chromatography); not shown: 6xHIS, N-terminal, kept; SNAP-tag, C-terminal, kept
T1 sequence (looked up): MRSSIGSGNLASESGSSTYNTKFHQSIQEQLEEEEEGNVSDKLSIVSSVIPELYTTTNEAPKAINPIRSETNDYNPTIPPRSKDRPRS

B1: GST-SH3_(Boi2) (domain or fragment, S. cerevisiae, UniProt P39969 43-107, looked up)
chain: GNFPMYIAINEYFKRMEDELDMKPGDKIKVITDDEEYKDGWYFGRNLRTNEEGLYPVVFTQKITV
notes: SH3 domain of Boi2, S. cerevisiae; source: E. coli BL21DE3, purified (GSTrap, Superdex 200); not shown: GST, N-terminal, kept
B2: GST-SH3_(Boi1) (domain or fragment, S. cerevisiae, UniProt P38041 13-77, looked up)
chain: KSFPLYIAVNQYSKRMEDELNMKPGDKIKVITDDGEYNDGWYYGRNLRTKEEGLYPAVFTKRIAI
notes: SH3 domain of Boi1, S. cerevisiae; also called GST fusion to SH3_(Boi1); source: E. coli BL21DE3, purified (GSTrap, Superdex 200) for SPR; coupled to glutathione beads from extract for the pull-down; not shown: GST, N-terminal, kept

Target: T1, 6xHIS-Nba1_(202-289)-SNAP
Assay: SPR; Biacore X100; GST-SH3 domains captured on an anti-GST antibody CM5 chip, free GST on the reference cell; 6xHis-Nba1_(202-289)-SNAP as analyte; HBSEP buffer (10 mM Hepes, 150 mM NaCl, 3 mM EDTA, 0.05% Tween 20, pH 7.4); equilibrium KD
Details: both partners purified

Binder	Kd
B1	1970 nM
B2	~740 nM
